From patent US20220184184A1, “GLUCOSE SENSITIVE INSULIN DERIVATIVES” (Novo Nordisk A/S, priority 2019, published 2022)

B1: Compound of Example 152 (ligand)
chain 1: GIVEQCCTSICSLEQLENYCNK
chain 2: FVNQHLCGSHLVEALYLVCGERGFHYPGK
modifications: not fully specified; diboron group from building block of example 15; sites only in drawing
B2: Compound of Example 154 (ligand)
chain 1: GIVEQCCTSICSLEQLENYCNK
chain 2: FVNQHLCGSHLVEALYLVCGERGFHYPGK
modifications: not fully specified; diboron group from building block of example 19; sites only in drawing
B3: Compound of Example 158 (ligand)
chain 1: GIVEQCCTSICSLEQLENYCNK
chain 2: FVNQHLCGSHLVEALYLVCGERGFHYPGK
modifications: not fully specified; diboron group from building block of example 16; sites only in drawing
B4: Compound of Example 348 (ligand)
chain 1: GIVEQCCTSICSLEQLENYCNK
chain 2: FVNQHLCGSHLVEALYLVCGERGFHYPK
modifications: diboron group of building block of Example 39 on amino group(s); site(s) shown only in the drawing
B5: Compound of Example 155 (ligand)
chain 1: GIVEQCCTSICSLEQLENYCNK
chain 2: FVNQHLCGSHLVEALYLVCGERGFHYPK
modifications: not fully specified; diboron group from building block of example 19; sites only in drawing
B6: Compound of Example 149 (ligand)
chain 1: GIVEQCCTSICSLEQLENYCNK
chain 2: FVNQHLCGSHLVEALYLVCGERGFHYPK
modifications: not fully specified; diboron group from building block of example 15; sites only in drawing
B7: Compound of Example 146 (ligand)
chain 1: GIVEQCCTSICSLEQLENYCNK
chain 2: FVNQHLCGSHLVEALYLVCGERGFHYPK
modifications: not fully specified; diboron group from building block of example 16; sites only in drawing
B8: Compound of Example 141 (ligand)
chain 1: GIVEQCCTSICSLEQLENYCNK
chain 2: FVNQHLCGSHLVEALYLVCGERGFHYPK
modifications: diboron group from building block of example 2; sites only in drawing
B9: Compound of Example 166 (ligand)
chain 1: GIVEQCCTSICSLEQLENYCNK
chain 2: FVNQHLCGSHLVEALYLVCGERGFHYPK
modifications: not fully specified; diboron group from building block of example 20; sites only in drawing
B10: compound of Example 272: A14E A22K B25H desB27 desB30 human insulin conjugated with building block of example 29 (ligand)
chain 1: GIVEQCCTSICSLEQLENYCNK
chain 2: FVNQHLCGSHLVEALYLVCGERGFHYPK
modifications: not fully specified; diboron group(s) of example 29, sites only in drawing
notes: number and sites of diboron groups only in drawing
B11: Compound of Example 139 (ligand)
chain 1: GIVEQCCTSICSLEQLENYCNK
chain 2: FVNQHLCGSHLVEALYLVCGERGFHYPK
modifications: diboron group from building block of example 9; sites only in drawing
B12: Compound of Example 349 (ligand)
chain 1: GIVEQCCTSICSLEQLENYCNK
chain 2: FVNQHLCGSHLVEALYLVCGERGFHYPK
modifications: diboron group of building block of Example 38 on amino group(s); site(s) shown only in the drawing
B13: Compound of Example 352 (ligand)
chain 1: GIVEQCCTSICSLEQLENYCNK
chain 2: FVNQHLCGSHLVEALYLVCGERGFHYPK
modifications: diboron group of building block of Example 40 on amino group(s); site(s) shown only in the drawing
B14: Compound of Example 350 (ligand)
chain 1: GIVEQCCTSICSLEQLENYCNK
chain 2: FVNQHLCGSHLVEALYLVCGERGFHYPK
modifications: diboron group of building block of Example 37 on amino group(s); site(s) shown only in the drawing
B15: compound of Example 271: A14E A22K B25H desB27 desB30 human insulin conjugated with building block of example 22 (ligand)
chain 1: GIVEQCCTSICSLEQLENYCNK
chain 2: FVNQHLCGSHLVEALYLVCGERGFHYPK
modifications: not fully specified; diboron group(s) of example 22, sites only in drawing
notes: as for B10
B16: Compound of Example 150 (ligand)
chain 1: GIVEQCCTSICSLEQLENYCNK
chain 2: FVNQHLCGSHLVEALYLVCGERGFHYPK
modifications: not fully specified; diboron group from building block of example 18; sites only in drawing

Experiments:
[1] = Alizarin red (ARS) colorimetric displacement assay, binding of boron compounds to glucose; settings: statement in words
Description: The alizarin-red binding assay is a colorimetric assay used to determine the inhibition affinity of boronate/boroxole compounds to glucose. The assay is based on a colour shift of alizarin-red upon binding to boronate, which shift can be followed by change in absorbance in the 330-340 nm region. […] After 5 minutes of centrifugation at 4000 rpm, the plate is placed in a multi-well spectrometer (SpectraMax, Molecular Devices) for absorption detection. […] Upon complete dissolution of the compound, 200 μM of Alizarin red (ARS) is added to the solution. The ARS-boronate solution is then aliquoted into a 96 multiwell plate (black, flat and clear bottom) 1:1 with appropriate carbohydrate. […] The plate with ARS-boronate mixed with carbohydrate is incubated 20 minutes at room temperature. After 5 minutes of centrifugation at 4000 rpm the plate is placed in a multiwell spectrometer (SpectraMax, Molecular Devices) for absorption detection.

[2] = molecular target: T1, human Insulin Receptor A (hIR-A) (human, UniProt P06213-2 28-1370); assay: SPA, relative hIR-A affinity at 20 mM vs 0 mM glucose, 1.5% HSA
T1 construct: Solubilised semi-purified receptor captured on SPA beads by antibody 83-7
Description: (§1) BHK cells over-expressing human Insulin Receptor A (hIR-A) were lysed in 50 mM Hepes pH 8.0, 150 mM NaCl, 1% Triton X-100, 2 mM EDTA and 10% glycerol. The cleared cell lysate was batch absorbed with wheat germ agglutinin (WGA)-agarose (Lectin from Triticum vulgaris-Agarose, L1394, Sigma-Aldrich Steinheim, Germany) for 90 minutes. The receptors were washed with 20 volumes 50 mM Hepes pH 8.0, 150 mM NaCl and 0.1% Triton X-100, where after the receptors were eluted with 50 mM Hepes pH 8.0, 150 mM NaCl, 0.1% Triton X-100, 0.5 M n-Acetyl Glucosamine and 10% glycerol. All buffers contained Complete (Roche Diagnostic GmbH, Mannheim, Germany) as described in Andersen et al. 2017 PLos One 12.
(§2) In order to test the glucose sensitivity, the binding experiments were set up in absence or presence of 20 mM glucose. The plates were rocked gently for 22.5 hours at 22° C., centrifuged for 5 minutes at 1000 rpm and counted in TopCounter (Perkin Elmer). Data points were fitted to a four-parameter logistic model, whereby the relative affinity of the analogue compared to human insulin (within the same plate) was determined.

[3] = molecular target: T1, human Insulin Receptor A (hIR-A); assay: SPA competition vs 125I-insulin, hIR-A, 1.5% HSA, no glucose
Description: as §1, §2

[4] = molecular target: T2, human Insulin Receptor A (hIR-A) (human, UniProt P06213-2 28-1370); assay: SPA, displacement of 125I-insulin from solubilised hIR-A, 1.5% HSA; increase in relative affinity from 0 to 20 mM glucose
T2 construct: Solubilized semi-purified receptor captured on SPA beads through antibody 83-7
Description: as §1, §2

[5] = molecular target: T2, human Insulin Receptor A (hIR-A); assay: SPA, displacement of 125I-insulin from solubilised hIR-A, 1.5% HSA, no glucose; affinity relative to human insulin
Description: as §1, §2

[6] = molecular target: T3, human Insulin Receptor A (hIR-A) (human, UniProt P06213-2 28-1370); assay: SPA, relative hIR-A affinity at 20 mM over 0 mM glucose
T3 construct: Solubilised, semi-purified receptor
Description: as §1, §2

[7] = molecular target: T3, human Insulin Receptor A (hIR-A); assay: SPA, competition with 125I-insulin on solubilised hIR-A, relative to human insulin
Description: as §1, §2

| Molecule | HIR glucose factor, 20 mM glucose 1.5% HSA [2] | HIR affinity relative HI (%), 1.5% HSA [3] | other results |
| --- | --- | --- | --- |
| O=C(O)c1cc2c(c(C(F)(F)F)c1)COB2O [Example 42, 1-Hydroxy-4-(trifluoromethyl)-1,3-dihydrobenzo[c][1,2]oxaborole-6-carboxylic acid] |  |  | affinity to glucose compared with the diboron compounds [1]: weaker affinity to glucose |
| O=C(O)c1cc(F)c2c(c1)B(O)OC2 [Example 43, 4-fluoro-1-hydroxy-1,3-dihydrobenzo[c][1,2]oxaborole-6-carboxylic acid] |  |  | affinity to glucose compared with the diboron compounds [1]: weaker affinity to glucose |
| B1 | 2.9 fold | 4.9% |  |
| B2 | 3.7 fold | 6.1% |  |
| B3 | 9.9 fold | 2% |  |
| B4 |  |  | HIR glucose factor, 20 mM glucose 1.5% HSA [4]: 7.3 fold; HIR affinity relative HI (%), 1.5% HSA [5]: 0.2% |
| B5 | 3 fold | 5.3% |  |
| B6 | 2.8 fold | 6.7% |  |
| B7 | 4.5 fold | 3.5% |  |
| B8 | 2.3 fold | 8.6% |  |
| B9 | 5.9 fold | 2.2% |  |
| B10 |  |  | HIR glucose factor, 20 mM glucose 1.5% HSA [6]: 12.1 fold; HIR affinity relative HI (%), 1.5% HSA [7]: 0.2% |
| B11 | 3.2 fold | 4% |  |
| B12 |  |  | HIR glucose factor, 20 mM glucose 1.5% HSA [4]: 4.7 fold; HIR affinity relative HI (%), 1.5% HSA [5]: 1% |
| B13 |  |  | HIR glucose factor, 20 mM glucose 1.5% HSA [4]: 5.2 fold |
| B14 |  |  | HIR glucose factor, 20 mM glucose 1.5% HSA [4]: 18.4 fold; HIR affinity relative HI (%), 1.5% HSA [5]: 0.1% |
| B15 |  |  | HIR glucose factor, 20 mM glucose 1.5% HSA [6]: 7.1 fold |
| B16 | 1.3 fold | 13.3% |  |
